Reference: EP4491631A1 (Anaveon AG, dated 2025)

T1: IL-2R CD122-CD132 on Jurkat-PD1+ CD122+ cells (UniProt P14784 27-551; P31785 23-369)
T1 sequence (looked up) 1: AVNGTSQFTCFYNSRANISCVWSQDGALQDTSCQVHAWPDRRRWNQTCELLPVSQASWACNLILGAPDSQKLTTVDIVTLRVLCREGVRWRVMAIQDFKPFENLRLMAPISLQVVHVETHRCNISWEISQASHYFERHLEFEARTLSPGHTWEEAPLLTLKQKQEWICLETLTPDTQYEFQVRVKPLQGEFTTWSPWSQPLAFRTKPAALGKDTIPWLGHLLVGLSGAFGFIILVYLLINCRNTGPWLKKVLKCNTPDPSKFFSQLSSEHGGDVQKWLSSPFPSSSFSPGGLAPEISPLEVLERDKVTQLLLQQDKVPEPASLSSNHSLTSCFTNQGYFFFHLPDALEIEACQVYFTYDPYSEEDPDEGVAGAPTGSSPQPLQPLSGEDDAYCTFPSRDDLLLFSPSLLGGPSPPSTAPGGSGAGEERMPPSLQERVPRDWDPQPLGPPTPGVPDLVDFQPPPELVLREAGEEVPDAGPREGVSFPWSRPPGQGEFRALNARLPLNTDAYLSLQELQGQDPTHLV
T1 sequence (looked up) 2: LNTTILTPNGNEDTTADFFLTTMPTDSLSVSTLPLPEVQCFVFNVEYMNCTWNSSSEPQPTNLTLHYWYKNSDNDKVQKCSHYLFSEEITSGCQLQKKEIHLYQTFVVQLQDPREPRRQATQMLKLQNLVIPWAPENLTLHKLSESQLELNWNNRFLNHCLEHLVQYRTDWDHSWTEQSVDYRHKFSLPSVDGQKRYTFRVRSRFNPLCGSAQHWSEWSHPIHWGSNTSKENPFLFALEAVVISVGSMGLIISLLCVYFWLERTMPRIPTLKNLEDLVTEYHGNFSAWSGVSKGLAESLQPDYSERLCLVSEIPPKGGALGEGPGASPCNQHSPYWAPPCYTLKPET

B1: GQM289 (bispecific antibody, human IgG1, kappa, lambda, L234A L235A)
chain 1: EVQLLESGGGLVQPGGSLRLSCAASGFTFSINAMTWVRQAPGKGLEWVSTISGSGFSTYYADSLKGRFTISRDNSKNTLYLQMNSLRAEDTAVYYCAKEVYGDYWGQGTLVTVSSASTKGPSVFPLAPSSKSTSGGTAALGCLVKDYFPEPVTVSWNSGALTSGVHTFPAVLQSSGLYSLSSVVTVPSSSLGTQTYICNVNHKPSNTKVDKRVEPKSCDKTHTCPPCPAPEAAGGPSVFLFPPKPKDTLMISRTPEVTCVVVDVSHEDPEVKFNWYVDGVEVHNAKTKPREEQYNSTYRVVSVLTVLHQDWLNGKEYKCKVSNKALAAPIEKTISKAKGQPREPQVYTLPPSREEMTKNQVSLTCLVKGFYPSDIAVEWESNGQPENNYKTTPPVLDSDGSFFLTSKLTVDKSRWQQGNVFSCSVMHEALHNHYTQKSLSLSPGK
chain 2: not shown
chain 3: EVQLVQSGAEVKKPGESLKISCKGSGYAFTNYLIEWVRQMPGKGLEWMGVINPGSGGTNYNEKFKGQVTISADKSISTAYLQWSSLKASDTAMYYCARWRGEGYYAYFDVWGQGTTVTVSSASTKGPSVFPLAPSSKSTSGGTAALGCLVKDYFPEPVTVSWNSGALTSGVHTFPAVLQSSGLYSLSSVVTVPSSSLGTQTYICNVNHKPSNTKVDKRVEPKSCDKTHTCPPCPAPEAAGGPSVFLFPPKPKDTLMISRTPEVTCVVVDVSHEDPEVKFNWYVDGVEVHNAKTKPREEQYNSTYRVVSVLTVLHQDWLNGKEYKCKVSNKALAAPIEKTISKAKGQPREPQVYTLPPSREEMTKNQVSLYCLVKGFYPSDIAVEWESNGQPENNYKTTPPVLDSDGSFFLYSKLTVDKSRWQQGNVFSCSVMHEALHNHYTQKSLSLSPGK
chain 4: not shown
B2: XWY176 (bispecific antibody, human IgG1, kappa, lambda, L234A L235A)
chain 1: B1 chain 1
chain 2: not shown
chain 3: B1 chain 3
chain 4: not shown
B3: LTJ498 (bispecific antibody, human IgG1, lambda, L234A L235A)
chain 1: B1 chain 1
chain 2: not shown
chain 3: AIRLTQSPSSFSASTGDRVTITCKASQSVDYGGGNFHLRPRDLISNINVIVLELKGSETTFMCEYADETATIVEFLNRWITFSQSIISTLTPTSSSTKKTQLQLEHLLLDLQMILNGINNYKNPKLTRMLTFKFYMPKKATELKHLQCLEEELKPLEEVLNLAQSKGGGGDSYMNWYQQKPGKAPKLLIYAASNLESGVPSRFSGSGSGTDFTLTISSLQSEDFATYYCQQSNEDPYTFGGGTKVEIKGGGGSGGGGSGGGGSEVQLVQSGAEVKKPGESLKISCKGSGYAFTNYLIEWVRQMPGKGLEWMGVINPGSGGTNYNEKFKGQVTISADKSISTAYLQWSSLKASDTAMYYCARWRGEGYYAYFDVWGQGTTVTVSSGGGGSGGGGSEVQLLESGGGLVQPGGSLRLSCAASGFTFSINAMTWVRQAPGKGLEWVSTISGSGFSTYYADSLKGRFTISRDNSKNTLYLQMNSLRAEDTAVYYCAKEVYGDYWGQGTLVTVSSASTKGPSVFPLAPSSKSTSGGTAALGCLVKDYFPEPVTVSWNSGALTSGVHTFPAVLQSSGLYSLSSVVTVPSSSLGTQTYICNVNHKPSNTKVDKRVEPKSCDKTHTCPPCPAPEAAGGPSVFLFPPKPKDTLMISRTPEVTCVVVDVSHEDPEVKFNWYVDGVEVHNAKTKPREEQYNSTYRVVSVLTVLHQDWLNGKEYKCKVSNKALAAPIEKTISKAKGQPREPQVYTLPPSREEMTKNQVSLYCLVKGFYPSDIAVEWESNGQPENNYKTTPPVLDSDGSFFLYSKLTVDKSRWQQGNVFSCSVMHEALHNHYTQKSLSLSPGK
B4: z5-XVT458 (antibody, human IgG1, kappa, V domains shown)
VH: QVQLVQSGAEVKKPGASVKVSCKASGYTFTNFYIHWVRQAPGQGLEWMGSIYPNYGDTAYNQKFKDRATMTTDKSTSTAYMELRSLRSDDTAVYYCARGYSYAMDYWGQGTTVTVSS
VL: DIQMTQSPSSVSASVGDRVTITCSASQGISGDLNWYQQKPGKAPKLLIYHTSSLHSGVPSRFSGSGSGTDFTLTISSLQPEDFATYYCQYYSKDLLTFGGGTKLEIKR
notes: full hIgG1 format

Tests used:
[1] = molecular target: T1, IL-2R CD122-CD132 on Jurkat-PD1+ CD122+ …; assay: cell-based or functional assay
[2] = molecular target: T2, cynoPD-1 His (AcroBiosystems PD1-C5223) (cynomolgus monkey, UniProt B0LAJ3 25-170); assay: SPR, antibody captured
T2 construct: also called cPD-1
T2 sequence (B0LAJ3 entry or part of it limits assumed, form in doubt): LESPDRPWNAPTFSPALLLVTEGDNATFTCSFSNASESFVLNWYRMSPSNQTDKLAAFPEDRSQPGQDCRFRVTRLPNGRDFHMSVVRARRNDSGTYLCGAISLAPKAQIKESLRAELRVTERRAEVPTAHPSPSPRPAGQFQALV

Row | Binder | EC50 value for pSTAT5 induction [1] [nM] | koff [2] [s⁻¹]
1 | B1 | 0.22 | –
2 | B2 | 0.27 | –
3 | B3 | 0.24 | –
4 | B4 | – | 0.00338
